What is called EC50 (read off the curve) is the concentration giving half of the maximal effect.

Read-outs that look alike come from different tables or passages of the source.

The target of experiment [1] is GITR expressed on CHO cells (Homo sapiens (Human)) (UniProt Q9Y5U5). Nature of the experiment: flow cytometry on GITR-expressing CHO cells, MFI-FL4. In general terms: A flow cytometer gives signals particle by particle.
The target is the same in experiment [2]. The experiment is described as above. This is another data set of the same source.

GITR expressed on CHO cells (Homo sapiens (Human)), sequence (Q9Y5U5 26-241 limits assumed): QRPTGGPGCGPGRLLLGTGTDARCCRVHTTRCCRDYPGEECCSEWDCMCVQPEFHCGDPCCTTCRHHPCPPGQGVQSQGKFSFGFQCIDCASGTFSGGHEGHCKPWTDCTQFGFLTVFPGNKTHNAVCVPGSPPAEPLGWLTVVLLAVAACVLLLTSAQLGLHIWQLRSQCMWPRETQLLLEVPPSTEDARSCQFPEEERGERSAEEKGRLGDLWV

Turning to TRX-518 (antibody), the EC50 (read off the curve) is 3 nM in experiment [1] and 1 nM in experiment [2].
